# Positions count from the first letter of the chain named. “And” between values parts separate entries of the source, which are not always exact repeats. Equal entries are not always repeated. Where two headings read alike, the source gives them in different places.
# B1: 5F11-TCB (bispecific antibody, human IgG1, kappa, L234A L235A)
# light 1: DIVMTQAPLSVSVTPGESASISCRSSKSLLHSNGITYVYWYFQKPGKSPQVLIYRMSNLASGVPDRFSGSGSETDFTLKISRVEAEDVGIYHCGQLLENPYTFGAGTELELKRTVAAPSVFIFPPSDRKLKSGTASVVCLLNNFYPREAKVQWKVDNALQSGNSQESVTEQDSKDSTYSLSSTLTLSKADYEKHKVYACEVTHQGLSSPVTKSFNRGEC
# light 2: EVQLLESGGGLVQPGGSLRLSCAASGFTFSTYAMNWVRQAPGKGLEWVSRIRSKYNNYATYYADSVKGRFTISRDDSKNTLYLQMNSLRAEDTAVYYCVRHGNFGNSYVSWFAYWGQGTLVTVSSASVAAPSVFIFPPSDEQLKSGTASVVCLLNNFYPREAKVQWKVDNALQSGNSQESVTEQDSKDSTYSLSSTLTLSKADYEKHKVYACEVTHQGLSSPVTKSFNRGEC
# heavy 1: EVQLVESGGGLVQPGRSLKLSCAASGFSFSNYGMAWVRQAATKGLEWVASISTGGGNTYYRDSVKGRFIVSRDNAKNTQYLQMDSLRSEDTATYYCTRHDRGGLYWGQGVMVTVSSASTKGPSVFPLAPSSKSTSGGTAALGCLVEDYFPEPVTVSWNSGALTSGVHTFPAVLQSSGLYSLSSVVTVPSSSLGTQTYICNVNHKPSNTKVDEKVEPKSCDKTHTCPPCPAPEAAGGPSVFLFPPKPKDTLMISRTPEVTCVVVDVSHEDPEVKFNWYVDGVEVHNAKTKPREEQYNSTYRVVSVLTVLHQDWLNGKEYKCKVSNKALGAPIEKTISKAKGQPREPQVCTLPPSRDELTKNQVSLSCAVKGFYPSDIAVEWESNGQPENNYKTTPPVLDSDGSFFLVSKLTVDKSRWQQGNVFSCSVMHEALHNHYTQKSLSLSPGK
# heavy 2: not shown
# notes: 2+1 anti-GPRC5D/anti-CD3 T cell bispecific: LC1 (GPRC5D), LC2 (CD3 crossed VH-CL), HC hole, HC knob; also called 5F11p-CH2527
# B2: 5F11(VH1c + VL1b)-C122-TCB (P1AE6624) (bispecific antibody, human IgG1, kappa, L234A L235A)
# light 1: B1 light 1 with A7S, V11L, S12P, S18P, F42L, E73G, I90V, A105Q, E108K, L111I
# light 2: B1 light 2 with T28Q, T31S, G102T, N103T, G105P, N106S, W111Y, F112Y, A113G
# heavy 1: QVQLVESGGGVVQPGRSLRLSCAASGFSFSNYGMAWVRQAPGKGLEWVASISTGGGNTYYADSVKGRFTISRDNSKNTLYLQMNSLRAEDTAVYYCTRHDRGGLYWGQGTMVTVSSASTKGPSVFPLAPSSKSTSGGTAALGCLVEDYFPEPVTVSWNSGALTSGVHTFPAVLQSSGLYSLSSVVTVPSSSLGTQTYICNVNHKPSNTKVDEKVEPKSCDKTHTCPPCPAPEAAGGPSVFLFPPKPKDTLMISRTPEVTCVVVDVSHEDPEVKFNWYVDGVEVHNAKTKPREEQYNSTYRVVSVLTVLHQDWLNGKEYKCKVSNKALGAPIEKTISKAKGQPREPQVCTLPPSRDELTKNQVSLSCAVKGFYPSDIAVEWESNGQPENNYKTTPPVLDSDGSFFLVSKLTVDKSRWQQGNVFSCSVMHEALHNHYTQKSLSLSPGK
# heavy 2: not shown
# notes: 2+1 TCB: LC1 (anti-GPRC5D), LC2 (anti-CD3 crossed), HC1 Fc hole, HC2 Fc knob
# B3: 5F11-IgG (antibody, V domains shown)
# VH: EVQLVESGGGLVQPGRSLKLSCAASGFSFSNYGMAWVRQAATKGLEWVASISTGGGNTYYRDSVKGRFIVSRDNAKNTQYLQMDSLRSEDTATYYCTRHDRGGLYWGQGVMVTVSS
# VL: DIVMTQAPLSVSVTPGESASISCRSSKSLLHSNGITYVYWYFQKPGKSPQVLIYRMSNLASGVPDRFSGSGSETDFTLKISRVEAEDVGIYHCGQLLENPYTFGAGTELELK
# notes: Rat-derived variable domains, tested as IgG; also called P1AE5733 (parental); 5F11_parental
# B4: 5E11-IgG (antibody, V domains shown)
# VH: ELQLEQSGGGLVQPGGSLTLSCAASGFTFSKYAMAWVRQAPTKGLEWVASISTGGVNTYYRDSVKARFTISRDNAKNTQYLQMDSLRSEDTATYYCATHTGDYFDYWGQGVMVTVSS
# VL: DIVLTQSPALAVSPGQRATISCRASQSVSISGINLMNWYQQKPGQQPKLLIYHASILASGIPTRFSGSGSGTDFTLTIDPVQADDIATYYCQQTRESPLTFGSGTNLEIK
# notes: Rat-derived variable domains, tested as IgG; also called P1AE5706 (parental); 5E11 parental
# Experiments:
# human GPRC5D [1] = target: T1, human GPRC5D (human, UniProt Q9NZD1 1-345); experiment: cell-based or functional assay
# human GPRC5D [2] = target: T1, human GPRC5D; experiment: cell-based or functional assay; remark: listed apart in the source
# human GPRC5D [3] = target: T1, human GPRC5D; experiment: cell-based or functional assay; remark: listed apart in the source
# human GPRC5D [4] = target: T1, human GPRC5D; experiment: flow cytometry on NCI-H929 cells; paragraph 550 says these values were falsely calculated by a factor of 10 (too low)
# Experimental: (§1) To measure the binding to GPRC5D, we performed a flow cytometry-based binding assay on reported multiple myeloma cell lines (Lombardi et al., Molecular characterization of human multiple myeloma cell lines by integrative genomics: insights into the biology of the disease; Genes Chromosomes Cancer. 2007 March; 46(3):226-38). The cell line NCI-H929 (ATCC® CRL-9068) was cultured in RPMI 1640 with Glutamax medium (Gibco) supplemented with 10% FBS, 1× Penicillin/Streptomycin (Gibco), 1× Sodium Pyruvate (Gibco) and 50 μM beta-Mercaptoethanol (Gibco). Jurkat-NFAT reporter cells (a CD3-expressing human acute lymphatic leukemia reporter cell line with a NFAT promoter, GloResponse Jurkat NFAT-RE-luc2P, Promega #CS176501) were cultured in RPMI 1640, containing 2 g/l Glucose, 2 g/l NaHCO₃, 10% FCS, 25 mM HEPES, 2 mM L-Glutamine, 1×NEAA, 1× Sodium-pyruvate and 200 μg/ml Hygromycin B.
# (§2) Flow cytometry acquisition was performed on a custom-designed BD Biosciences Fortessa and analyzed using BD Diva. EC50 values were calculated, using GraphPad Prism software.
# human CD3 = target: T2, human CD3 (human, UniProt P07766 23-207); experiment: flow cytometry on Jurkat-NFAT cells; paragraph 550 says these values were falsely calculated by a factor of 10 (too low)
# T2 construct: Expressed on Jurkat-NFAT reporter cells as part of the TCR/CD3 complex; also called hCD3; CD3 epsilon
# Experimental: as §1, §2
# human GPRC5D [5] = target: T1, human GPRC5D; experiment: cell-based or functional assay; remark: listed apart in the source
# human GPRC5D [6] = target: T1, human GPRC5D; experiment: cell-based or functional assay; remark: listed apart in the source
# human GPRC5D [7] = target: T1, human GPRC5D; experiment: cell-based or functional assay; remark: listed apart in the source
# human GPRC5A = target: T3, human GPRC5A (human, UniProt Q8NFJ5 1-357); experiment: cell ELISA on stably transfected CHO cells
# T3 construct: whole, on cells; also called hu GPCR5A; GPRCSA
# Experimental: (§3) Stable transfected CHO clones expressing either human GPRCSD or cynomolgus GPRCSD or murine GPRCSD or human GPRCSA were used to analyze the binding of potential lead candidate antibodies as IgGs. In detail, 10⁴ cells (viability≥98%) were seeded into 384 well-microtiter plates (BD Poly D-Lysin, #356662, volume: 25 μl/well) using fresh culture medium. After overnight incubation at 37° C., 25 μl/well dilutions of antibodies were added (15×1:3 dilutions in 1×PBS, assay conc. starts at 30 μg/ml) to the cells for 2 hours at 4° C. After one washing step using 90 μl/well PBST (10×PBS, Roche, #11666789001+0.1% Tween 20), cells were subsequently fixed by the addition of 50 μl/well 0.05% glutaraldehyde (Sigma Cat. No: G5882 in 1×PBS) for 10 min at room temperature (RT). After three additional washing steps using 90 μl/well PBST, secondary antibodies were added for detection: for human antibodies goat anti-human Ig a chain antibody HRP conjugate (Millipore #AP502P) diluted 1:2000 in blocking buffer (1×PBS (Roche #11666789001)+2% BSA (Bovine Serum Albumin Fraction V, fatty acid free, Roche, #10735086001)+0.05% Tween 20) was used (25 μl/well). […] After incubation for 1 h at RT and three additional washing steps using 90 μl/well PBST, 25 μl/well TMB substrate was added (Roche order no. 11835033001) for 10 min and color development to final ODs was determined by measurement at 370 nm/492 nm.
# Cynomolgus crossreactivity was also detected for all other antibodies but at lower levels compared to 10B10 and 07A04 (FIG. 9). No significant binding to CHO cells expressing murine GPRC5D and no binding to CHO cells expressing the human version of GPRC5A was detected (FIG. 9).
# human GPRC5D [8] = target: T1, human GPRC5D; experiment: cell ELISA, CHO hu GPRC5D (EC/IC50 rel)
# In short: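 Stably transfected CHO cells seeded overnight, then incubated 2 h at 4° C with antibody IgGs in 15-point 1:3 dilutions from 30 μg/ml. Cells fixed with 0.05% glutaraldehyde; binding detected with HRP anti-human Ig and TMB, absorbance at 370/492 nm.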
# human GPRC5D [9] = target: T1, human GPRC5D; experiment: cell ELISA, CHO cells stably expressing human GPRC5D
# Experimental: as §3
# human GPRC5D [10] = target: T1, human GPRC5D; experiment: cell-based or functional assay; remark: listed apart in the source
# T1 sequence (Q9NZD1 whole entry): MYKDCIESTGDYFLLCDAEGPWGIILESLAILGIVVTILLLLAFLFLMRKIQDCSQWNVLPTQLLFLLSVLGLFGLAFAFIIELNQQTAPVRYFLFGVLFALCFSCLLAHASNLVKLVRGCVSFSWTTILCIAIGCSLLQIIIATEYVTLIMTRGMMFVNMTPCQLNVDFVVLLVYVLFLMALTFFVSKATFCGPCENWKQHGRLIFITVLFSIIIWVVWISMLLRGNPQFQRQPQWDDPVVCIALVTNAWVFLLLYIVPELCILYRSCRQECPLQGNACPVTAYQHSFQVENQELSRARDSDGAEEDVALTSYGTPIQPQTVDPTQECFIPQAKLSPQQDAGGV
# T3 sequence (Q8NFJ5 whole entry): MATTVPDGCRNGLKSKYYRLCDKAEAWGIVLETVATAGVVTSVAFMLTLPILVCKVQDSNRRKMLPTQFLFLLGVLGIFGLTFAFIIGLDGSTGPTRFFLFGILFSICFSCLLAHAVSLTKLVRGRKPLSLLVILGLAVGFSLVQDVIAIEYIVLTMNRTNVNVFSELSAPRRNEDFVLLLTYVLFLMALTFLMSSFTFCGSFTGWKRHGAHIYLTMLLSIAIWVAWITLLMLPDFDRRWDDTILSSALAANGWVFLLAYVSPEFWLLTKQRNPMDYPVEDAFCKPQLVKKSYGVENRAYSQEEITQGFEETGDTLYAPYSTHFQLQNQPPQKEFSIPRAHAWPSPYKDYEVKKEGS
# T2 sequence (P07766 23-207 limits assumed): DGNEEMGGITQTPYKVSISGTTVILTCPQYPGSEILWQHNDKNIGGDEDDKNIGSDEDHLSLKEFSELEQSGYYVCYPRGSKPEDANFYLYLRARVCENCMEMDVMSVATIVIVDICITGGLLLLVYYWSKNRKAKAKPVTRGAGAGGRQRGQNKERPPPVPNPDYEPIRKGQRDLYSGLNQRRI
binder,measurement,setting,value
B1,"EC50 of anti-GPRC5D-TCB mediated killing, AMO-1",human GPRC5D [1],3 pM
same,"EC50 of anti-GPRC5D-TCB mediated killing, L363",human GPRC5D [1],1 pM
same,"EC50 of anti-GPRC5D-TCB mediated killing, NCI-H929",human GPRC5D [1],1 pM
same,"EC50 of anti-GPRC5D-TCB mediated killing, RPMI-8226",human GPRC5D [1],2 pM
same,"EC50 in vitro killing assay, AMO-1",human GPRC5D [2],6 pM
same,"EC50 in vitro killing assay, EJM",human GPRC5D [2],3 pM
same,"EC50 in vitro killing assay, L363",human GPRC5D [2],3 pM
same,"EC50 in vitro killing assay, MOLP-2",human GPRC5D [2],1 pM
same,"EC50 in vitro killing assay, NCI-H929",human GPRC5D [2],4 pM
same,"EC50 in vitro killing assay, OPM-2",human GPRC5D [2],1 pM
same,"EC50 in vitro killing assay, RPMI",human GPRC5D [2],6 pM
same,"AUC, activation of Jurkat-NFAT reporter cells in presence of RPMI-8226 cells",human GPRC5D [3],393000
same,"EC50 (pM), activation of Jurkat-NFAT reporter cells in presence of RPMI-8226 cells",human GPRC5D [3],14 pM
same,EC50,human GPRC5D [4],0.18 nM
same,EC50,human CD3,2.31 nM
B2,"AUC, activation of Jurkat-NFAT reporter cells in presence of RPMI-8226 cells",human GPRC5D [3],881000
same,"EC50 (pM), activation of Jurkat-NFAT reporter cells in presence of RPMI-8226 cells",human GPRC5D [3],4.5 pM
same,"EC50 (pM), activation of autologous T-cells (CD69 on CD8 T cells) with a primary MM sample",human GPRC5D [5],1.06 pM
same,EC50,human GPRC5D [4],0.1 nM
B3,"CAR-J2 EC50 [ng/mL] (PGLALA-CAR-J activation, L363 target cells)",human GPRC5D [6],2.65 ng/mL
same,EC50 values of CAR-J activation,human GPRC5D [7],2.65 ng/mL
same,binding result,human GPRC5A,no binding (tested: assay conc. starts at 30 µg/ml)
same,EC50,human GPRC5D [8],0.0058 µg/mL and 0.04 nM
same,EC50,human GPRC5D [9],0.0217 µg/mL and 0.144 nM
B4,"CAR-J2 EC50 [ng/mL] (PGLALA-CAR-J activation, L363 target cells)",human GPRC5D [10],3.9 ng/mL
same,EC50 values of CAR-J activation,human GPRC5D [7],3.9 ng/mL
same,binding result,human GPRC5A,no binding (tested: assay conc. starts at 30 µg/ml)
same,EC50,human GPRC5D [8],0.0104 µg/mL and 0.07 nM
same,EC50,human GPRC5D [9],0.0296 µg/mL and 0.198 nM

# — patent US20220259318A1 (Hoffmann-La Roche, published 2022)
